In patent US20190071668, “COMPOSITIONS AND METHODS FOR IDENTIFICATION, ASSESSMENT, PREVENTION, AND TREATMENT OF CANCER USING SLNCR ISOFORMS” (Dana-Farber Cancer Institute, Inc., published 2019):

Target: Androgen receptor (AR) (UniProt P10275 P10275:1-920)
Test: EMSA

Sequence of Androgen receptor (AR) (P10275 whole entry, one chain of several): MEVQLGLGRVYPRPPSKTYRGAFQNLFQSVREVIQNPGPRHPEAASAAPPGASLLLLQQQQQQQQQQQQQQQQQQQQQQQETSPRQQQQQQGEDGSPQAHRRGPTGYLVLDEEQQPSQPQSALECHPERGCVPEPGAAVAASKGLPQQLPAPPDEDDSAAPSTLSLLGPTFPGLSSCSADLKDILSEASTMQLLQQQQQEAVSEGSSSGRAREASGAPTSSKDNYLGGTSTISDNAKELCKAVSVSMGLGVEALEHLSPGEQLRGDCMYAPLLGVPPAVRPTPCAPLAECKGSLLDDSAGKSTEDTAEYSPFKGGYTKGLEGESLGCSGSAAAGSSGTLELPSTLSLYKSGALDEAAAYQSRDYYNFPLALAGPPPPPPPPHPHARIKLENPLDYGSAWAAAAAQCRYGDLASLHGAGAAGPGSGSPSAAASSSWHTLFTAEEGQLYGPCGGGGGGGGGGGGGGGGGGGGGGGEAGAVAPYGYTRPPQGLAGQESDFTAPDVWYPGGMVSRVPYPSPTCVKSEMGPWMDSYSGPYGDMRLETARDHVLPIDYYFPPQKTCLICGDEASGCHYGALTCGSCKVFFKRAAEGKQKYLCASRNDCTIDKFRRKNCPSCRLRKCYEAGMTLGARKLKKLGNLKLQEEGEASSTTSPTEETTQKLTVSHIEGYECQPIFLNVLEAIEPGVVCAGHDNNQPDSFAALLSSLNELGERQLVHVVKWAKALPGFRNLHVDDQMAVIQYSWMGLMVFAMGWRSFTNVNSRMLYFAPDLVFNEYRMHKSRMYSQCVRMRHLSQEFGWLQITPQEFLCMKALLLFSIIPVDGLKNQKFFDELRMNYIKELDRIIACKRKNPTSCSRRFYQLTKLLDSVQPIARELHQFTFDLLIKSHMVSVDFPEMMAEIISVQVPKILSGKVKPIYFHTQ

Binding result, no binding:
CCCUCCCUCCCUCCCUCCCU (ssRNA) [(CCCU)5]
UCUCUCUCUCUCUCUCUCUC (ssRNA) [(UC)10]
UUCUUUCUUUCUUUCUUUCU (ssRNA) [(UUCU)5]
